According to US20220048967A1 (published 2022):
Numbered stars: 1 amine (or outer) side, 2 acyl side, 3 side chain; on linkers, the order of the positions; unused ones are H or OH. Square brackets hold non-standard residues; d marks the D form. Side chains are listed from the residue outwards. Ends that are not written are not given here. * marks the point of attachment. C20 diacid = O=C(O)CCCCCCCCCCCCCCCCCCC(=O)*; γGlu = O=C(O)[C@H](CCC(=O)[*:2])N[*:1]; AEEA = NCCOCCOCC(=O)O; Aib = CC(C)(N)C(=O)O

T1: human GIP receptor (human, UniProt P48546 22-466)
T1 sequence (looked up): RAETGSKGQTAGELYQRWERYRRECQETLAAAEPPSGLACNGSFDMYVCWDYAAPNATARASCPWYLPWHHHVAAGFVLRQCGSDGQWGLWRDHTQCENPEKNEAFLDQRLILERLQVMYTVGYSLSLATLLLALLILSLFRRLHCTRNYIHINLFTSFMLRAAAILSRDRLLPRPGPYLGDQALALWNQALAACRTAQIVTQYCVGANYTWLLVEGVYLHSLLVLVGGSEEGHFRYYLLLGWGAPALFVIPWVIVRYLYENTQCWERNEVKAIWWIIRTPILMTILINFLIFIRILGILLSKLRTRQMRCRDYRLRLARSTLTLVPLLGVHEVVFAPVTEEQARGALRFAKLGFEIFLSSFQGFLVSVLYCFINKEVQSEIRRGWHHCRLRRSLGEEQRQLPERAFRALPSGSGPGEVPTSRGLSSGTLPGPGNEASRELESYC

B1: Example 42 (peptide)
peptide: Y[Aib]EGTFTSDYSILLDKIAQ[Aib]AFIEYLIEGGPSK([AEEA-AEEA-γGlu-C20 diacid])GAPPPS-NH2
modifications: N-terminus assumed
SMILES: CC[C@H](C)[C@H](NC(=O)[C@H](CCCCN)NC(=O)[C@H](CC(=O)O)NC(=O)[C@H](CC(C)C)NC(=O)[C@H](CC(C)C)NC(=O)[C@@H](NC(=O)[C@H](CO)NC(=O)[C@H](Cc1ccc(O)cc1)NC(=O)[C@H](CC(=O)O)NC(=O)[C@H](CO)NC(=O)[C@@H](NC(=O)[C@H](Cc1ccccc1)NC(=O)[C@@H](NC(=O)CNC(=O)[C@H](CCC(=O)O)NC(=O)C(C)(C)NC(=O)[C@@H](N)Cc1ccc(O)cc1)[C@@H](C)O)[C@@H](C)O)[C@@H](C)CC)C(=O)N[C@@H](C)C(=O)N[C@@H](CCC(N)=O)C(=O)NC(C)(C)C(=O)N[C@@H](C)C(=O)N[C@@H](Cc1ccccc1)C(=O)N[C@H](C(=O)N[C@@H](CCC(=O)O)C(=O)N[C@@H](Cc1ccc(O)cc1)C(=O)N[C@@H](CC(C)C)C(=O)N[C@H](C(=O)N[C@@H](CCC(=O)O)C(=O)NCC(=O)NCC(=O)N1CCC[C@H]1C(=O)N[C@@H](CO)C(=O)N[C@@H](CCCCNC(=O)COCCOCCNC(=O)COCCOCCNC(=O)CC[C@H](NC(=O)CCCCCCCCCCCCCCCCCCC(=O)O)C(=O)O)C(=O)NCC(=O)N[C@@H](C)C(=O)N1CCC[C@H]1C(=O)N1CCC[C@H]1C(=O)N1CCC[C@H]1C(=O)N[C@@H](CO)C(N)=O)[C@@H](C)CC)[C@@H](C)CC
B2: Example 43 (peptide)
peptide: Y[Aib]EGTFTSDYSILLDKIAQ[Aib]AFIEYLIEGGPSSK([AEEA-AEEA-γGlu-C20 diacid])APPPS-NH2
modifications: N-terminus assumed
SMILES: CC[C@H](C)[C@H](NC(=O)[C@H](CCCCN)NC(=O)[C@H](CC(=O)O)NC(=O)[C@H](CC(C)C)NC(=O)[C@H](CC(C)C)NC(=O)[C@@H](NC(=O)[C@H](CO)NC(=O)[C@H](Cc1ccc(O)cc1)NC(=O)[C@H](CC(=O)O)NC(=O)[C@H](CO)NC(=O)[C@@H](NC(=O)[C@H](Cc1ccccc1)NC(=O)[C@@H](NC(=O)CNC(=O)[C@H](CCC(=O)O)NC(=O)C(C)(C)NC(=O)[C@@H](N)Cc1ccc(O)cc1)[C@@H](C)O)[C@@H](C)O)[C@@H](C)CC)C(=O)N[C@@H](C)C(=O)N[C@@H](CCC(N)=O)C(=O)NC(C)(C)C(=O)N[C@@H](C)C(=O)N[C@@H](Cc1ccccc1)C(=O)N[C@H](C(=O)N[C@@H](CCC(=O)O)C(=O)N[C@@H](Cc1ccc(O)cc1)C(=O)N[C@@H](CC(C)C)C(=O)N[C@H](C(=O)N[C@@H](CCC(=O)O)C(=O)NCC(=O)NCC(=O)N1CCC[C@H]1C(=O)N[C@@H](CO)C(=O)N[C@@H](CO)C(=O)N[C@@H](CCCCNC(=O)COCCOCCNC(=O)COCCOCCNC(=O)CC[C@H](NC(=O)CCCCCCCCCCCCCCCCCCC(=O)O)C(=O)O)C(=O)N[C@@H](C)C(=O)N1CCC[C@H]1C(=O)N1CCC[C@H]1C(=O)N1CCC[C@H]1C(=O)N[C@@H](CO)C(N)=O)[C@@H](C)CC)[C@@H](C)CC
B3: Example 39 (peptide)
peptide: Y[Aib]EGTFTSDYSILLDKIAQ[Aib]AFIEYLIEGK([AEEA-AEEA-γGlu-C20 diacid])PSSGAPPPS-NH2
modifications: N-terminus assumed
SMILES: CC[C@H](C)[C@H](NC(=O)[C@H](CCCCN)NC(=O)[C@H](CC(=O)O)NC(=O)[C@H](CC(C)C)NC(=O)[C@H](CC(C)C)NC(=O)[C@@H](NC(=O)[C@H](CO)NC(=O)[C@H](Cc1ccc(O)cc1)NC(=O)[C@H](CC(=O)O)NC(=O)[C@H](CO)NC(=O)[C@@H](NC(=O)[C@H](Cc1ccccc1)NC(=O)[C@@H](NC(=O)CNC(=O)[C@H](CCC(=O)O)NC(=O)C(C)(C)NC(=O)[C@@H](N)Cc1ccc(O)cc1)[C@@H](C)O)[C@@H](C)O)[C@@H](C)CC)C(=O)N[C@@H](C)C(=O)N[C@@H](CCC(N)=O)C(=O)NC(C)(C)C(=O)N[C@@H](C)C(=O)N[C@@H](Cc1ccccc1)C(=O)N[C@H](C(=O)N[C@@H](CCC(=O)O)C(=O)N[C@@H](Cc1ccc(O)cc1)C(=O)N[C@@H](CC(C)C)C(=O)N[C@H](C(=O)N[C@@H](CCC(=O)O)C(=O)NCC(=O)N[C@@H](CCCCNC(=O)COCCOCCNC(=O)COCCOCCNC(=O)CC[C@H](NC(=O)CCCCCCCCCCCCCCCCCCC(=O)O)C(=O)O)C(=O)N1CCC[C@H]1C(=O)N[C@@H](CO)C(=O)N[C@@H](CO)C(=O)NCC(=O)N[C@@H](C)C(=O)N1CCC[C@H]1C(=O)N1CCC[C@H]1C(=O)N1CCC[C@H]1C(=O)N[C@@H](CO)C(N)=O)[C@@H](C)CC)[C@@H](C)CC
B4: Example 40 (peptide)
peptide: Y[Aib]EGTFTSDYSILLDKIAQ[Aib]AFIEYLIEGGK([AEEA-AEEA-γGlu-C20 diacid])SSGAPPPS-NH2
modifications: N-terminus assumed
SMILES: CC[C@H](C)[C@H](NC(=O)[C@H](CCCCN)NC(=O)[C@H](CC(=O)O)NC(=O)[C@H](CC(C)C)NC(=O)[C@H](CC(C)C)NC(=O)[C@@H](NC(=O)[C@H](CO)NC(=O)[C@H](Cc1ccc(O)cc1)NC(=O)[C@H](CC(=O)O)NC(=O)[C@H](CO)NC(=O)[C@@H](NC(=O)[C@H](Cc1ccccc1)NC(=O)[C@@H](NC(=O)CNC(=O)[C@H](CCC(=O)O)NC(=O)C(C)(C)NC(=O)[C@@H](N)Cc1ccc(O)cc1)[C@@H](C)O)[C@@H](C)O)[C@@H](C)CC)C(=O)N[C@@H](C)C(=O)N[C@@H](CCC(N)=O)C(=O)NC(C)(C)C(=O)N[C@@H](C)C(=O)N[C@@H](Cc1ccccc1)C(=O)N[C@H](C(=O)N[C@@H](CCC(=O)O)C(=O)N[C@@H](Cc1ccc(O)cc1)C(=O)N[C@@H](CC(C)C)C(=O)N[C@H](C(=O)N[C@@H](CCC(=O)O)C(=O)NCC(=O)NCC(=O)N[C@@H](CCCCNC(=O)COCCOCCNC(=O)COCCOCCNC(=O)CC[C@H](NC(=O)CCCCCCCCCCCCCCCCCCC(=O)O)C(=O)O)C(=O)N[C@@H](CO)C(=O)N[C@@H](CO)C(=O)NCC(=O)N[C@@H](C)C(=O)N1CCC[C@H]1C(=O)N1CCC[C@H]1C(=O)N1CCC[C@H]1C(=O)N[C@@H](CO)C(N)=O)[C@@H](C)CC)[C@@H](C)CC
B5: Example 41 (peptide)
peptide: Y[Aib]EGTFTSDYSILLDKIAQ[Aib]AFIEYLIEGGPK([AEEA-AEEA-γGlu-C20 diacid])SGAPPPS-NH2
modifications: N-terminus assumed
SMILES: CC[C@H](C)[C@H](NC(=O)[C@H](CCCCN)NC(=O)[C@H](CC(=O)O)NC(=O)[C@H](CC(C)C)NC(=O)[C@H](CC(C)C)NC(=O)[C@@H](NC(=O)[C@H](CO)NC(=O)[C@H](Cc1ccc(O)cc1)NC(=O)[C@H](CC(=O)O)NC(=O)[C@H](CO)NC(=O)[C@@H](NC(=O)[C@H](Cc1ccccc1)NC(=O)[C@@H](NC(=O)CNC(=O)[C@H](CCC(=O)O)NC(=O)C(C)(C)NC(=O)[C@@H](N)Cc1ccc(O)cc1)[C@@H](C)O)[C@@H](C)O)[C@@H](C)CC)C(=O)N[C@@H](C)C(=O)N[C@@H](CCC(N)=O)C(=O)NC(C)(C)C(=O)N[C@@H](C)C(=O)N[C@@H](Cc1ccccc1)C(=O)N[C@H](C(=O)N[C@@H](CCC(=O)O)C(=O)N[C@@H](Cc1ccc(O)cc1)C(=O)N[C@@H](CC(C)C)C(=O)N[C@H](C(=O)N[C@@H](CCC(=O)O)C(=O)NCC(=O)NCC(=O)N1CCC[C@H]1C(=O)N[C@@H](CCCCNC(=O)COCCOCCNC(=O)COCCOCCNC(=O)CC[C@H](NC(=O)CCCCCCCCCCCCCCCCCCC(=O)O)C(=O)O)C(=O)N[C@@H](CO)C(=O)NCC(=O)N[C@@H](C)C(=O)N1CCC[C@H]1C(=O)N1CCC[C@H]1C(=O)N1CCC[C@H]1C(=O)N[C@@H](CO)C(N)=O)[C@@H](C)CC)[C@@H](C)CC

Key:
human GIP receptor = molecular target: T1, human GIP receptor; experiment: cell-based or functional assay
human GLP-1 receptor = human GLP-1 receptor (human, UniProt P43220 24-463); experiment: cell-based or functional assay

| Binder | hGIPR cAMP EC50 ratio (human GIP receptor) | hGIPR cAMP Rel EC50 (human GIP receptor) [pM] | hGLP1R cAMP EC50 ratio (human GLP-1 receptor) | hGLP1R cAMP Rel EC50 (human GLP-1 receptor) [pM] |
| --- | --- | --- | --- | --- |
| B1 | 0.897 | 161 | 0.0471 | 1450 |
| B2 | 1.28 | 112 | 0.0777 | 862 |
| B3 | 1.07 | 133 | 0.0323 | 1920 |
| B4 | 1.06 | 136 | 0.0801 | 746 |
| B5 | 0.637 | 229 | 0.0637 | 960 |
